Assay: label from the status in PepcDB records

Sequence | protein production
MVKDSEFLTLVFQSILDEIDVGLHVVDEHGNTIVYNNKMMQIEDMEKHDVLNKNLMDVFMFSKQQDSTLVQALQEGKTIKNVKQSYFNNKGQEITTINHTYPIVQDGKIRGAVEIAKDVTKLERLIRENMNKKGSTTYTFDSILGTSPAIQDVIENAKRATRTSSSVLLAGETGTGKELFAQSIHNGSDRSGGPFISQNCAALPDSLVESILFGTKKGAFTGAVDQPGLFEQAHGGTLLLDEINSLNLSLQAKLLRALQERKIRRIGSTKDTPIDVRIIATMNEDPIDAIAGERMRKDLYYRLSVVTLIIPPLRERKEDILLLASEFIQKNNHLFQMNVEHISDDVKQFFLSYDWPGNIRELEHMIEGAMNFMTDEQTITASHLPYQYRMKIKPADIPEPETPRHQPAADLKEKMESFEKYVIENVLRKHGHNISKAAQELGISRQSLQYRLKKFSHSSNE | failed
MVKELIEQGANVTGLVRDHVPQSNLYQGEHIKKMNIVRGSLEDLAVIERALGEYEIDTVFHLAAQAIVGVANRNPISTFEANILGTWNILEACRKHPLIKRVIVASSDKAYGDQENLPYDENMPLQGKHPYDVSKSCADLISHTYFHTYGLPVCITRCGNLYGGGDLNFNRIIPQTIQLVLNGEAPEIRSDGTFVRDYFYIEDAVQAYLLLAEKMEENNLAGEAFNFSNEIQLTVLELVEKILKKMNSNLKPKVLNQGSNEIKHQYLSAEKARKLLNWTPAYTIDEGLEKTIEWYTEFFKK | failed
MVKHARVRAPELVGRGGWINTGDRELSLAALRGRIVVLDFWTFCCVNCLHALDELRELEERHRDTVVIVGVHSPKFTHEAEHRAVLDAVERYSVEHPVLDDPERVTWRQYAVRAWPTLAVIDPEGYVVAQYTGEGHAHAIQRLVEELEARHAAKGTLRRGDAPYVAPEPEPTTLRFPGKAVSLPSGTFLVSDTTRHQLVELAEDGESPVRRIGSGRRGFTDGPADRAEFSEPQGLALLGDGSVVVADTVNHALRRYEPVTGEVTTLAGTGRQHRPGEPSRGAARAVSLSSPWDVALWNDRVWIAMAGVHQLWAYDPRDGSVTVTAGTGNEGLVDGPGPEAWFAQPSGLSATDDRLWVADSETSALRWVELDGTVRTAVGTGLFDFGHRDGPAARALLQHPLGVAALPDGSVVVADTYNHALRRYAPPTGEVSTLATDLREPSDAVVVGGDVLVVESARHRLTRLRLPHDALGTGSGEAVLRGTTEAAPGTLRLEVAFRALAGQKLDQRYGPATRLLVSATPPELLRAGEGAGTELSRSLDLDPSVPEGMLHVSATAASCDDDLDVPYPACHVHQKDWKIPVRLVEGASDRLPLVLTGVDTA | failed
MVKHLQVRGRLYYRSLAHGLRLTMRRLLFCFLLVLTSLTAIAAEPARPKVGLVLSGGAARGLAHIGVLKALEEQGVRIDAIAGTSMGAVVGGLYASGYSVEELEKLATTLDWQQALSDAPPREDVPFRRKQDDRDFLVKQKLSFRDDGSLGLPLGVIQGQNLSLLLESKLAHTADTRDFDKLPIPFRAVATDIASGEKVVFRRGHLPQVIRASMSIPAVFAPVELDGRLLVDGGMVDNIPVDVAREMGVDLAIVVDIGTPLRDRKQLLTVVDVLNQSITLMTRRNSEEQLASLHRDDILIQPSLTAFGVTDFGRARHMIDAGYRATRLLDPRLAALRQLEGDASLAVARSPRQRTPVITAIRIENDSKVSDDVIRSYIRQPIDAPLELDRLQTDMGTLYGLDYFDRVQYRVVHKGNDHTLVINARGRRGGTDYLRLGLNLSDDLRGDSAFNLGASYRVNGINSLGAEWLTRGQIGDQQALYSEFYQPLDVGSRYFIAPYLDLGSQNIEATLDNDPVAEYRLERYGFGLNVGRQIGNSGEVRLGVGKAWGEAEVRIGDQDLPKVSFNEGFYELKYSFDTLDNVYFPHHGEDIGLTLRKYDKSLDSDQDYRQWLFTLDKAISSGPNTFVLGGSYGRTLDDTEVVTSSFVMGGARQLSGFREDSVSGQNASLLRMVYYRRLTPRAYVPLDFPLYIGGSLERGRAWNNDNEFDSGYINAASIFLGLDTPLGPLNFSYGANSAHEQAVYLNLGHTF | failed
MVKHQQTPAYIAAILYSFIIGLSFLFVKIALQTAEPFDILAHRFTIAFAAATVPILFGWVKLSILVKDVIDILPLALLYPALFFSFQAFGLVYSSSSEAGIIQAAIPIFTMVFAAYVLKERPTWTQKGFTVLSVAGVMFIFVMKGVDVESASLKGSLLILLSALSSAMYNTAARKMTQRFKLTELTYIMSAIGFVVFNAIALVRHGAAGTVGTYFLPFREPGFVLAIVYLGVLSSLVTSFLSNYTLSRIEAFKMSAFNHVSTIVTMIAGFVILNESLAWYHLAGAVCIMIGVVGSNINLEKKTKRPGMPAKK | failed
MVKNGQSKRQPWVKNLYSNREYPDNYTDASFLKDLRTNLHCRIYTFGEAIAGITVLNNQISCITGFLILYQLMLSDSVSPTTILVPSCGITGIGYLCYRGRSLSWALLGEDSKTLVTVVLFGYLFSPMLHTLTQAISTDTIYTMTFFVLLGNLIFGHYGLDVAMVSKVGNIYGYWSQAVSLNAAIFGAICLASRLPTSYHAFVLLVEAAVFFVLYPIMTEANWHAGFMLPIFAICCMALYCISRPVLYLYASTTIFINFVCPFIFVWQQQYKFNIHGPWDEAIVEENTEENLDGNL | failed
MVKVIFFDLDDTLVDTSKLAEIARKNAIENMIRHGLPVDFETAYSELIELIKEYGSNFPYHFDYLLRRLDLPYNPKWISAGVIAYHNTKFAYLREVPGARKVLIRLKELGYELGIITDGNPVKQWEKILRLELDDFFEHVIISDFEGVKKPHPKIFKKALKAFNVKPEEALMVGDRLYSDIYGAKRVGMKTVWFRYGKHSERELEYRKYADYEIDNLESLLEVLARESSSNKKVHPPRQQI | not failed
MVKVTYDGVYVLSVKDDVPAADVLHAGDLITEIDGNAFKSSQEFIDYIHSKKVGDTVKINYKHGDKNEQADIKLTAIDKKGTPGIGITLVDDLEHHHHHH | not failed
MVKVYAPASSANMSVGFDVLGAAVTPVDGTLLGDVVSVEAADHFRLHNLGRFADKLPPEPRENIVYQCWERFCQALGKTIPVAMTLEKNMPIGSGLGSSACSVVAALVAMNEHCGKPLNDTRLLALMGELEGRISGSIHYDNVAPCFLGGMQLMIEENGIISQ | failed
MVKWYKTYLEVYGKSFDEISDDSIRKVKRQLKERQNDSPLVSVVLIAHNEERHLISCIWSLSENHCHFPIEIIAVNNNSTDKTEEILKSLGVTYYNETKKGPGYARQCGLDHAKGKYHICIDADTLYPPHYIETHVKYLMNPKVACTFSLWSFMVDERHSRFGLWCYEGLRDIYLRLQAIQRPELCVRGMAFSFNTEIGRRFGFRTDIIRGEDGSLALAMKPYGKIVFITSRKARVLTSNGTLNSEGSLIDNIWIRVIKALKEITGLFIKKTAYKDKDSNLIKLEHHHHHH | failed
MVLAVLFPTYPAYEFAGYALPGVSTTLGVFSLTVLTNTVLFALAYPLVLGARNALTGNVSVVMFVGRRVAADDLATVHGSLLESSAGGFTRSGLDLDALRMYLRWRDCTLADLRSDPGLRHPDTLPDTPGDPTDGAVATDGSGDPWGAAAFLADIDHSAYGTTPAQLRDGLDLITDHDDVWVTPGVPFLLPLFAGLVVALTFGDVLFYVLDALGFAAA | failed
MVLEHCRDAIESHGVETDIISLRGMKIESCRACLSCAKKHRCRIDDGLNDIIDRIRDSEGFIVATPVYFGTARGDLMAALQRIGMVSRASDGFLSWKVGGPIAVARRGGHTATIQELLMFYFINDMIVPGSTYWNMVFGWAPGEVEDDSEGIETIRRFGENVAELIKRINGGSLEHHHHHH | failed
MVLLSIDFASLHTILESLYNEMMPLCEDMLGVAKGVAGLGALFYVALRVWQSMARAEPVDVYPLLRPFALGICILLFPTLVLGTMNSILSPIVQGTHRMLEGQTLDMQQYRAQKDRLEREAMMRNPETAYLVSDEEFDRQLDELGWSPGDAATRLGMYMEVGMYNLEKSIRDAFRSLLELLFAAASLLIDTVRTFFLVVLSVLGPIAFSISVWDGLQSTLGQWFTRYISVYLWLPVSDLFSCMLAKIQVLMLQNDIAELQGNPDYSLDNSNCVYIIFMLIGIVGYFTVPTVSGWIVQAGGGGNYSRNLNRTATKAGGFTAGAGGAALGNIGGRIRGK | failed
MVLPPVFYLARMWLMSQDSRVFFRIFFGIGLVLILISVVIFYNQFTYSKDAIHTEGVIVDTVWHSSHSHRTGKNGSWYPVVAFRPTPDYTLIFNSSIGSDFYEDSEGDKVNVYYSPGHPEKAEINNPWVNFFKWGFIGIMGVIFISVGLLISMPSSKKTRRKRKSRP | failed
MVLQKLPLIGLLLLLTIVASPANADGPVCPPSNKLSRASFPEGFLFGTATAAYQVEGAINETCRGPALWDIYCRRYPERCNNDNGDVAVDFFHRYKEDIQLMKNLNTDAFRMSIAWPRIFPHGRKEKGVSQAGVQFYHDLIDELIKNGITPFVTVFHWDTPQDLEDEYGGFLSERIVKDFREYADFVFQEYGGKVKHWITFNEPWVFSHAGYDVGKKAPGRCSSYVNAKCQDGRSGYEAYLVTHNLLISHAEAVEAYRKCEKCKGGKIGIAHSPAWFEAHDLADSQDGASIDRALDFILGWHLDTTTFGDYPQIMKDIVGHRLPKFTTEQKAKLKASTDFVGLNYYTSVFSNHLEKPDPSKPRWMQDSLITWESKNAQNYAIGSKPLTAALNVYSRGFRSLLKYIKDKYANPEIMIMENGYGEELGASDSVAVGTADHNRKYYLQRHLLSMQEAVCIDKVNVTGYFVWSLLDNFEWQDGYKNRFGLYYVDFKNNLTRYEKESGKYYKDFLSQGVRPSALKKDEL | failed
MVLYFIGLGLYDERDITVKGLEIAKKCDYVFAEFYTSLMAGTTLGRIQKLIGKEIRVLSREDVELNFENIVLPLAKENDVAFLTPGDPLVATTHAELRIRAKRAGVESYVIHAPSIYSAVGITGMHIYKFGKSATVAYPEGNWFPTSYYDVIKENAERGLHTLLFLDIKAEKRMYMTANEAMELLLKVEDMKKGGVFTDDTLVVVLARAGSLNPTIRAGYVKDLIREDFGDPPHILIVPGKLHIVEAEYLVEIAGAPREILRVNV | not failed
MVMFRGHLLCFGLGYSALRLARGLLRDGWRVSGTCRSEEKRQALSAQGITAFVFDETTPLPAEAWTGVTHVLVSIPPGPDGDPVLALHRADLLALRPEWLGYFSTTGVYGDTGGAWVDEGKPVRPTQERSKRRVAAEEDWLDLWRDEDLPVHLLRLAGIYGPGRSVFDQLRAGTAKRIIRPGHAFSRIHVDDIGLITRASMADPDPGAIYNLVDDEPAEPSEVMDHACALLGIDPPPAQSFDEVAPGLSPMALSFWADNRKVSNERLWDDLRLRLLYPTFRQGLEAILAEETGRVAEGPPVYKEASDC | failed
MVMPVKKVEKNILVLHGADKMFELVDKVEDYPHFLPWYSKTEVIGRSGNELKARLFMDYMHVRQSFATHNRNIPGREIRMELLEGPFKTLRGTWKFIDLGDDMCKIEFNLEYDFSNAVLSALISPVFNHLSVTLVEAFVKEADRRYA | failed
MVNEYKRIVLLRGLECINKHYFSLFKSLLARDLNLERDNQEQYTTIQIANMMEEKFPADSGLGKLIEFCEEVPALRKRAEILKKERSEGETSLEKNGQEAGPATPTSTTSHMLASERGETSATQEETSTAQAGTSTAQAGTSTAQAGTSTA | not failed
MVNFAVWLDGVILKIDLTDSLYKIYKGDQISLPITYEVNDDWIKVYDRIREANLAILSPYDEITTKAILERINLKPTYVIANRGKTKPSREPYRILIEVTGWDPLQVVTLASSPLDLLSARFFDSRIKVICVKRYQDCSKYSPFLYSENLDDAISSLKRLKIIR | failed

— a protein production outcome set (Wang et al. 2014)
